According to PMC12392098, “Predicting the DNA binding specificity of transcription factor mutants using family-level biophysically interpretable machine learning”:

Assays:
Conditions in all cases: protein: recombinant; tags: N-terminal 6xHis; mScarlet fusion; chain copies: 2; label: 32P (SRI primer strand); blunt
ASCL2 DBD R5K = ASCL2 DBD R5K (human, UniProt Q99929 50-102, R55K); assay: EMSA; preferred over CACGTG probe; 32P EMSA: ~50 nM probe, 0.5/1/2 uM protein, 30 min, reagents as in Feng et al., gel at 4 C; fluorescent EMSA: 5x buffer (50 mM Tris pH 7.5, 250 mM NaCl, 5 mM MgCl2, 20% glycerol, 2.5 mM DTT, 2.5 mM EDTA, 250 ug/ml poly(dI-dC), 1 mg/ml BSA) used at 1x plus half volume protein dialysis buffer (20 mM HEPES pH 7.9, 200 mM NaCl, 10% glycerol, 2 mM MgCl2), gel 0.5x TBE at 4 C
Sequence of ASCL2 DBD R5K (Q99929 50-102 R55K): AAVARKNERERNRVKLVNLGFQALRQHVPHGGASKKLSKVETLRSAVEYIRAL

ASCL2 DBD V13R = ASCL2 DBD V13R (human, UniProt Q99929 50-102, V63R); assay: EMSA; preferred over CAGCTG probe; 32P EMSA: ~50 nM probe, 0.5/1/2 uM protein, 30 min, reagents as in Feng et al., gel at 4 C; fluorescent EMSA: 5x buffer (50 mM Tris pH 7.5, 250 mM NaCl, 5 mM MgCl2, 20% glycerol, 2.5 mM DTT, 2.5 mM EDTA, 250 ug/ml poly(dI-dC), 1 mg/ml BSA) used at 1x plus half volume protein dialysis buffer (20 mM HEPES pH 7.9, 200 mM NaCl, 10% glycerol, 2 mM MgCl2), gel 0.5x TBE at 4 C
Sequence of ASCL2 DBD V13R (Q99929 50-102 V63R): as the sequence (Q99929 50-102 R55K) above, with K6R, V14R counted along it

ASCL2 DBD R5K+V13R = ASCL2 DBD R5K+V13R (human, UniProt Q99929 50-102, R55K;V63R); assay: as above
Sequence of ASCL2 DBD R5K+V13R (Q99929 50-102 R55K/V63R): as the sequence (Q99929 50-102 R55K) above, with V14R counted along it

Row | Binder | binding result (ASCL2 DBD R5K) | binding result (ASCL2 DBD V13R) | binding result (ASCL2 DBD R5K+V13R)
1 | CAGCTG probe (dsDNA) DNA 1: TAGCCAATAACTTCGTCCCTCAGCTGCATATAAGGAAGATCTAACCACCAATTTGG DNA 2: CCAAATTGGTGGTTAGATCTTCCTTATATGCAGCTGAGGGACGAAGTTATTGGCTA | binds |  | 
2 | CACGTG probe (dsDNA) DNA 1: TAGCCAATAACTTCGTCCCTCACGTGCATATAAGGAAGATCTAACCACCAATTTGG DNA 2: CCAAATTGGTGGTTAGATCTTCCTTATATGCACGTGAGGGACGAAGTTATTGGCTA |  | binds | binds
